Source: IntAct's records for PubMed 15975580

Target: zo2_human TJP2 (UniProt Q9UDY2)
Sequence (Q9UDY2 whole entry): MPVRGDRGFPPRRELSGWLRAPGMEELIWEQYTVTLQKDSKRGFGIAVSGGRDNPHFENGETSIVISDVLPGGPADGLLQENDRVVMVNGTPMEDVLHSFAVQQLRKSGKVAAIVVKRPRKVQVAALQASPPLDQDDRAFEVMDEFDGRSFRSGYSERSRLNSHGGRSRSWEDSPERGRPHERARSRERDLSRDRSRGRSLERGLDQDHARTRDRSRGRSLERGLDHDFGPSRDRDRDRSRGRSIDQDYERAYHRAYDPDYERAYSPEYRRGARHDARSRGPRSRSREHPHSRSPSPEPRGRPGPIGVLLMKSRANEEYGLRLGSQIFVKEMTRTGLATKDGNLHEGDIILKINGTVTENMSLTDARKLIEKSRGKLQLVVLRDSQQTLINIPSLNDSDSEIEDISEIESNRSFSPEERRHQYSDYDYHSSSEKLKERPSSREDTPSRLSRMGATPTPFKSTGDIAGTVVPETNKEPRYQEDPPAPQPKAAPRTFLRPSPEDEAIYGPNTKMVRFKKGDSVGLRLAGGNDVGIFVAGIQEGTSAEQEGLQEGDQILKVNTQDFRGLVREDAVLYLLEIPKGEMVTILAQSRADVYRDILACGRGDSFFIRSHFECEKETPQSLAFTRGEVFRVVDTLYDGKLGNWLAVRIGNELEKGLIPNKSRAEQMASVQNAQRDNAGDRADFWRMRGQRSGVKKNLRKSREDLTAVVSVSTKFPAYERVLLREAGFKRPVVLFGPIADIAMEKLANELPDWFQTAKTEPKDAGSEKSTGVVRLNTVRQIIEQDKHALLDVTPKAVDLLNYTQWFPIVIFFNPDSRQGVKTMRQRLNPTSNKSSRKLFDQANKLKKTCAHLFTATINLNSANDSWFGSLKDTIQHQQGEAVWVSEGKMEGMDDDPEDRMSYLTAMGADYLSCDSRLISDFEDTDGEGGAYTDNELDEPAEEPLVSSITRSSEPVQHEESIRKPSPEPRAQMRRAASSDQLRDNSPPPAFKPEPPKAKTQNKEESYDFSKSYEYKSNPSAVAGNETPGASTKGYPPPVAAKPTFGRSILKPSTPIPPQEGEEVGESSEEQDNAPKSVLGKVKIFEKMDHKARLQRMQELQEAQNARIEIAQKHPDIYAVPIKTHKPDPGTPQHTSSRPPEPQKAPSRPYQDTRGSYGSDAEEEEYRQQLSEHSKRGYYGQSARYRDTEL

Protein scribble homolog (Homo sapiens), Q14160-1 P305L, sequence (Q14160 other isoform, or with tags, fused parts or gaps P305L): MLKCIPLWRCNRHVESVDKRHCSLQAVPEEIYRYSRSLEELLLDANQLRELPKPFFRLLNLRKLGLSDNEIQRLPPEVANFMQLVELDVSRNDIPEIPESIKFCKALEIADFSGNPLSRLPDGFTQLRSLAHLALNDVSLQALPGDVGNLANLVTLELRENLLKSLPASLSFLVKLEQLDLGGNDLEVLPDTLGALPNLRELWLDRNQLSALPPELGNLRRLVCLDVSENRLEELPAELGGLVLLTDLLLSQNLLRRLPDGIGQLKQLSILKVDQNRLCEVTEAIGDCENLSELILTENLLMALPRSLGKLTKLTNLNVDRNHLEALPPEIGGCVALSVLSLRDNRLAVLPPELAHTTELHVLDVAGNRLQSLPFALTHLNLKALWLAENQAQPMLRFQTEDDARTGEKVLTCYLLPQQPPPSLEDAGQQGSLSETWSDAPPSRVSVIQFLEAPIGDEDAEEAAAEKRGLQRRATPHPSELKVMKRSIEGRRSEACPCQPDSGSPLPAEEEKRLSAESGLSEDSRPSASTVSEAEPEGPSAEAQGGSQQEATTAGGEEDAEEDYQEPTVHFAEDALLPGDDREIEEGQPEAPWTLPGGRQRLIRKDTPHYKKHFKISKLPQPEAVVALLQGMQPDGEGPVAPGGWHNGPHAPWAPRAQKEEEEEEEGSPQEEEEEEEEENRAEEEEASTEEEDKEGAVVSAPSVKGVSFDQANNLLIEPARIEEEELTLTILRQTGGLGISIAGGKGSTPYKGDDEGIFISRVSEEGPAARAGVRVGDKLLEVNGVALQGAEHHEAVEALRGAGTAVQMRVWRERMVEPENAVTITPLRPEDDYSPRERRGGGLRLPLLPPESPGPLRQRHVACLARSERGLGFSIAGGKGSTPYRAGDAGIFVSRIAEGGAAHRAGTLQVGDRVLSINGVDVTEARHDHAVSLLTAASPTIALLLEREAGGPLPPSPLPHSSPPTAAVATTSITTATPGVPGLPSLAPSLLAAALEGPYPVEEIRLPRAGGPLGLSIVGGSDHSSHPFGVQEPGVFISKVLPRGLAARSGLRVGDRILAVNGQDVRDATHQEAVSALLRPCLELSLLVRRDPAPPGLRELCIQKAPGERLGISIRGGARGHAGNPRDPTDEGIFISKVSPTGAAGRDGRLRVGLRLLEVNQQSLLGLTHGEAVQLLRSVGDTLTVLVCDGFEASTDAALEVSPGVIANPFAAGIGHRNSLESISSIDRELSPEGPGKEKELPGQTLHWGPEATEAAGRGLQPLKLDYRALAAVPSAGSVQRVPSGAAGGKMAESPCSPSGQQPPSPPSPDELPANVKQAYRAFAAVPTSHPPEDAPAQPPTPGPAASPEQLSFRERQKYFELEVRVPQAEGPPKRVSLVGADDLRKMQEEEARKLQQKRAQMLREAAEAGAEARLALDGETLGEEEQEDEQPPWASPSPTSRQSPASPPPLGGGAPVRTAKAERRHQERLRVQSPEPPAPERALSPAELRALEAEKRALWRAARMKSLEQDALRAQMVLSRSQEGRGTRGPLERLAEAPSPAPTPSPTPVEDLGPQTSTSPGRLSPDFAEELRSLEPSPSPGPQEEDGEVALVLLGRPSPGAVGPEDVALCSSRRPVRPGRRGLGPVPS

Protein scribble homolog (Homo sapiens), Q14160-1 P305L
effect of a mutation on the interaction: decreasing interaction
